Test results taken from paper PMC3312455 (2009).

B1: VEGF-A165 (protein)
chain: MTDRQTDTAPSPSYHLLPGRRRTVDAAASRGQGPEPAPGGGVEGVGARGVALKLFVQLLGCSRFGGAVVRAGEAEPSGAARSASSGREEPQPEEGEEEEEKEEERGPQWRLGARKPGSWTGEAAVCADSAPAARAPQALARASGRGGRVARRGAEESGPPHSPSRRGSASRAGPGRASETMNFLLSWVHWSLALLLYLHHAKWSQAAPMAEGGGQNHHEVVKFMDVYQRSYCHPIETLVDIFQEYPDEIEYIFKPSCVPLMRCGGCCNDEGLECVPTEESNITMQIMRIKPHQGQHIGEMSFLQHNKCECRPKKDRARQEKKSVRGKGKGQKRKRKKSRYKSWSVPCGPCSERRKHLFVQDPQTCKCSCKNTDSRCKARQLELNERTCRCDKPRR
B2: HIV-Tat (protein)
chain: MEPVDPRLEPWKHPGSQPKTACTNCYCKKCCFHCQVCFITKALGISYGRKKRRQRRRAPQGSQTHQVSLSKQPTSQSRGDPTGPKE

Biological target: T1, VEGFR2/KDR ECD (Homo sapiens, UniProt P35968)
T1 chain: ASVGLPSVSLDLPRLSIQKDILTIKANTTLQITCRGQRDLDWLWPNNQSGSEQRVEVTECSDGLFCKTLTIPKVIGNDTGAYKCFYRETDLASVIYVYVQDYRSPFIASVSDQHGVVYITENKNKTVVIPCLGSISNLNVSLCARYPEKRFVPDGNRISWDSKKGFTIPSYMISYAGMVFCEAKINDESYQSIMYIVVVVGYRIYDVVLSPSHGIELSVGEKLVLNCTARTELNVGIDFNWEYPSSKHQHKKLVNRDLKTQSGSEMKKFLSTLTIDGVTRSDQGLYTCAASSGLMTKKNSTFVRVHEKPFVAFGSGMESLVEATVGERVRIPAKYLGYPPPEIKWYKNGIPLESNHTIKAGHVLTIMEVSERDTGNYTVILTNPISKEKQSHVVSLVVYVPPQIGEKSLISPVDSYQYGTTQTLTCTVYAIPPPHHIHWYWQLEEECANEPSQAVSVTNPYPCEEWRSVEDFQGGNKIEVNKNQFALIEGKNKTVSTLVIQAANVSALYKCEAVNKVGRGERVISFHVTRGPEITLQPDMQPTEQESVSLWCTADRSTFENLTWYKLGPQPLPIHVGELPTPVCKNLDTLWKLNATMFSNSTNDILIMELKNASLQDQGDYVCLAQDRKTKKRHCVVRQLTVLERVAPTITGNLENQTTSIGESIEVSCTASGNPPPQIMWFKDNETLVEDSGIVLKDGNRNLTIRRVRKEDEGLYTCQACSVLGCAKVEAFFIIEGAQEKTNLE
Test: SPR

Row | Binder | Kd [nM]
1 | B1 | 0.041
2 | B2 | 0.07
